Laboratory results reported in US20030186419.

Molecular target: rMBL-rMASP-2 complexes, P11226
Sequence (P11226 21-248, chain 1 of 2): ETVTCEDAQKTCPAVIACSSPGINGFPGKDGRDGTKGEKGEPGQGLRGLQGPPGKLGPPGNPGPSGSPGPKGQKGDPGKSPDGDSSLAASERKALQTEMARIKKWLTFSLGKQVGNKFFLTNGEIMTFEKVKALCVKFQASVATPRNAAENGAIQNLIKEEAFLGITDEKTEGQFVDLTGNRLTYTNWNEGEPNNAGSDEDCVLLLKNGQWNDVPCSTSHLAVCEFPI
Sequence (chain, as listed by the source, chain 2 of 2): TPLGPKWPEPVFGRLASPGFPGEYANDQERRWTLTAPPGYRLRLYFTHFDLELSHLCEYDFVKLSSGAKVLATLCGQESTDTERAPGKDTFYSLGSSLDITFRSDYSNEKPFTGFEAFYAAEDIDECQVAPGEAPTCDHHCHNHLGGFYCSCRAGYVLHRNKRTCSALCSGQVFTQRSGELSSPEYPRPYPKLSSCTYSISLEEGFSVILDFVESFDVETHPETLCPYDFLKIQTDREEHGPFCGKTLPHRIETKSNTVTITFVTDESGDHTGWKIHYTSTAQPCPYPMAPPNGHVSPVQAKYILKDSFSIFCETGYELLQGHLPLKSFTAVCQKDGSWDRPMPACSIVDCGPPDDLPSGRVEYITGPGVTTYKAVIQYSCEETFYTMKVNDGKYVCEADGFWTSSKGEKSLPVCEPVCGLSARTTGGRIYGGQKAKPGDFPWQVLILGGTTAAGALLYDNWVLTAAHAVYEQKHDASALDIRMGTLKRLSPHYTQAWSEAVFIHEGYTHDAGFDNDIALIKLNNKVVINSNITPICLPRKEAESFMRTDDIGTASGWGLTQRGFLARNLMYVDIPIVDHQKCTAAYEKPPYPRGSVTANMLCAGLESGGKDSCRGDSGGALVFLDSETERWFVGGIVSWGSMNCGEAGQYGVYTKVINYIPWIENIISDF

GSGALLSASWILTAAHVLRSQRRDTTVIPVSKEHVTVYL [rMASP-3 (recombinant MASP-3 from HEK 293EBNA cells transfected with the pMASP-3; 4.1 construct)]
activation of C4 by rMBL-rMASP-2 complexes (bound C4 on mannan-coated wells, Eu-labelled anti-C4 antibody): The activity of rMBL-rMASP-2 complexes was also inhibited by rMASP-3
